Each block holds one binder with its values, some of them ahead of it.
B5: EHBP1 bMERB domain (bMERB_(1060-1212), full-length bMERB domain) (domain or fragment)
chain: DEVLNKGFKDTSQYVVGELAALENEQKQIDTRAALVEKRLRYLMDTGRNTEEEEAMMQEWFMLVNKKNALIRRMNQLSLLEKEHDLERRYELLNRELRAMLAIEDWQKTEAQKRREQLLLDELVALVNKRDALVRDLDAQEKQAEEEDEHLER

Columns and labels:
[1] = biological target: EHBP1 bMERB domain L1179S (human, UniProt Q8NDI1-1 1060-1212, L1179S); experiment: ITC; GppNHp
[2] = biological target: EHBP1 bMERB domain N1187A (human, UniProt Q8NDI1-1 1060-1212, N1187A); experiment: ITC; GppNHp
[3] = biological target: EHBP1 bMERB domain L1156S (human, UniProt Q8NDI1-1 1060-1212, L1156S); experiment: ITC; GppNHp
[4] = biological target: EHBP1 bMERB domain R1189A (human, UniProt Q8NDI1-1 1060-1212, R1189A); experiment: ITC; GppNHp
[5] = biological target: EHBP1 bMERB domain L1182S (human, UniProt Q8NDI1-1 1060-1212, L1182S); experiment: ITC; GppNHp
[6] = biological target: EHBP1 bMERB domain Q1176A (human, UniProt Q8NDI1-1 1060-1212, Q1176A); experiment: ITC; GppNHp
[7] = biological target: B5; experiment: displacement by GppNHp Rab8a
[8] = biological target: EHBP1 full-length bMERB domain M1103A (human, UniProt Q8NDI1-1 1060-1212, M1103 to alanine); experiment: ITC
[9] = biological target: EHBP1 full-length bMERB domain M1116A (human, UniProt Q8NDI1-1 1060-1212, M1116A); experiment: ITC
[10] = biological target: B5; experiment: ITC
EHBP1 CH domain Q542A = EHBP1 CH domain Q542A (human, UniProt Q8NDI1-1 440-550, Q542 to alanine); experiment: ITC
EHBP1 CH domain Y541A = EHBP1 CH domain Y541A (human, UniProt Q8NDI1-1 440-550, Y541 to alanine); experiment: ITC
EHBP1 CH domain M537A = EHBP1 CH domain M537A (human, UniProt Q8NDI1-1 440-550, M537 to alanine); experiment: ITC
EHBP1 CH domain D532A = EHBP1 CH domain D532A (human, UniProt Q8NDI1-1 440-550, D532 to alanine); experiment: ITC
[11] = biological target: Rab8a_(1-176_T72E) (phosphomimetic Rab8a) (human, UniProt P61006 1-176, T72E); experiment: ITC

Chain of EHBP1 bMERB domain L1182S (Q8NDI1 1060-1212 L1182S): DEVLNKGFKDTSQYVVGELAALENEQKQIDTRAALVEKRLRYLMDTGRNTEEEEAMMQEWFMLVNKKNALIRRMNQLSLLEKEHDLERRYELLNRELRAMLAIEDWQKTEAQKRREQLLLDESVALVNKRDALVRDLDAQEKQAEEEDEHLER
Chain of EHBP1 bMERB domain L1156S (Q8NDI1 1060-1212 L1156S): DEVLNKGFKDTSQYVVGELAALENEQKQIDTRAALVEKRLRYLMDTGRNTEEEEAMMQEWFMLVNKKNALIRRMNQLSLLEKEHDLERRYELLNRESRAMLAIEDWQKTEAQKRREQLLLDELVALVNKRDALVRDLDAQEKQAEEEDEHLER
Chain of EHBP1 bMERB domain N1187A (Q8NDI1 1060-1212 N1187A): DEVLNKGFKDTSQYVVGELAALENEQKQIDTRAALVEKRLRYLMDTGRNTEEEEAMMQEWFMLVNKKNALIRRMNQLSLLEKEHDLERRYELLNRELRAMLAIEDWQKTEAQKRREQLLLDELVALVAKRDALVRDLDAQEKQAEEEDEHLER
Chain of EHBP1 bMERB domain L1179S (Q8NDI1 1060-1212 L1179S): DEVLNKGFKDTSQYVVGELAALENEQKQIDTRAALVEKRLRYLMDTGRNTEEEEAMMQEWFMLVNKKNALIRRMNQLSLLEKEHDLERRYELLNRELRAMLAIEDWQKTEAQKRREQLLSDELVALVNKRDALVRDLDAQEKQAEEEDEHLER
Chain of EHBP1 bMERB domain R1189A (Q8NDI1 1060-1212 R1189A): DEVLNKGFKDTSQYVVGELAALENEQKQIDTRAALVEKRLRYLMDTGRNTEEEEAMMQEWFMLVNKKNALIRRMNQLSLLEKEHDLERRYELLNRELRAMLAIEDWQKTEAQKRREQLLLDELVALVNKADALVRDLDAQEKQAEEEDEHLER
Chain of EHBP1 CH domain Y541A (Q8NDI1 1060-1212, stated change not applied): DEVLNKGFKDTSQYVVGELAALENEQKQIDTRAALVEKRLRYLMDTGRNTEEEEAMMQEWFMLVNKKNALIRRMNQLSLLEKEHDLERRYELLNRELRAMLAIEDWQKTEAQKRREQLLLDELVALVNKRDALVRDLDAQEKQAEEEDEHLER
Chain of EHBP1 CH domain D532A (Q8NDI1 1060-1212, stated change not applied): as above
Chain of EHBP1 CH domain M537A (Q8NDI1 1060-1212, stated change not applied): as above
Chain of EHBP1 CH domain Q542A (Q8NDI1 1060-1212, stated change not applied): as above
Chain of EHBP1 bMERB domain Q1176A (Q8NDI1 1060-1212 Q1176A): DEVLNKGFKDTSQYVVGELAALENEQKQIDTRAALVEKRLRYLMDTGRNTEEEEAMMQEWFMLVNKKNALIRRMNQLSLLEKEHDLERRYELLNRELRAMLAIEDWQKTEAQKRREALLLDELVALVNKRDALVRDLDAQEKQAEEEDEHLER
Chain of EHBP1 full-length bMERB domain M1116A (Q8NDI1 1060-1212 M1116A): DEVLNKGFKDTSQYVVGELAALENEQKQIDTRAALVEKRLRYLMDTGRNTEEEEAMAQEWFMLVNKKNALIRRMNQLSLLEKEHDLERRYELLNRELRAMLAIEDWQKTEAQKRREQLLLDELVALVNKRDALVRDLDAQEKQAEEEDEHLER
Chain of EHBP1 full-length bMERB domain M1103A (Q8NDI1 1060-1212 M1103A): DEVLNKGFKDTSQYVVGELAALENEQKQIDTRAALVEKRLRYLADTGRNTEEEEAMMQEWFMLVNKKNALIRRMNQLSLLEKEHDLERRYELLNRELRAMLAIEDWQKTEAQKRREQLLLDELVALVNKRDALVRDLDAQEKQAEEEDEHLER

B1: Rab8a_(1-176) (human Rab8a G-domain) (domain or fragment)
chain: MAKTYDYLFKLLLIGDSGVGKTCVLFRFSEDAFNSTFISTIGIDFKIRTIELDGKRIKLQIWDTAGQERFRTITTAYYRGAMGIMLVYDITNEKSFDNIRNWIRNIEEHASADVEKMILGNKCDVNDKRQVSKERGEKLALDYGIKFMETSAKANINVENAFFTLARDIKAKMDKK
Kd [1]: 3.23 µM
Kd [2]: 1.5 µM
Kd [3]: 14.3 µM
Kd [4]: 6 µM
Kd [5]: 3.04 µM
Kd [6]: 0.33 µM

B2: Cy3 labeled EHBP1 CH domain (domain or fragment)
chain: GRKPNASQSLLVWCKEVTKNYRGVKITNFTTSWRNGLSFCAILHHFRPDLIDYKSLNPQDIKENNKKAYDGFASIGISRLLEPSDMVLLAIPDKLTVMTYLYQIRAHFSGQ
modifications: Cy3 on the N-terminus
koff [7]: 165 s⁻¹

Binder: B5
Kd (EHBP1 CH domain Q542A): 3.85 µM
Kd (EHBP1 CH domain Y541A): 5.65 µM
Kd (EHBP1 CH domain M537A): 7.6 µM
Kd (EHBP1 CH domain D532A): 43.5 µM
Kd [11]: 0.4 µM

Results, then the binder that gave them:

Kd [8]: 34.7 µM
Kd [9]: 15.8 µM
B3: EHBP1 CH (calponin homology) domain (domain or fragment)
chain: GRKPNASQSLLVWCKEVTKNYRGVKITNFTTSWRNGLSFCAILHHFRPDLIDYKSLNPQDIKENNKKAYDGFASIGISRLLEPSDMVLLAIPDKLTVMTYLYQIRAHFSGQ

Kd [10]: 0.32 µM
B4: Rab10_(1-175) (human Rab10 G-domain) (domain or fragment)
chain: MAKKTYDLLFKLLLIGDSGVGKTCVLFRFSDDAFNTTFISTIGIDFKIKTVELQGKKIKLQIWDTAGQERFHTITTSYYRGAMGIMLVYDITNGKSFENISKWLRNIDEHANEDVERMLLGNKCDMDDKRVVPKGKGEQIAREHGIRFFETSAKANINIEKAFLTLAEDILRKTP
